Experimental findings from patent US20060263855A1 are described below.

This test deals with α-Hemoglobin (αHb) (UniProt P69905). The experiment in a line: cell-based or functional assay.
Chain of UniProt P69905 (P69905 2-142): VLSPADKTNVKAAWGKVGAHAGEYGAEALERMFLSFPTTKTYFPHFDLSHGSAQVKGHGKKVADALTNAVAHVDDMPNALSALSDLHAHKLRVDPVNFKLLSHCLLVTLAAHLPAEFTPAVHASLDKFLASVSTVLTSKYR

“α-hemoglobin stabilizing protein (AHSP) (from UniProt Q9NZD4 1-102)”: the Acceleration of rate of αHb oxidation by AHSP (ratio of oxidation rate constants) was 6.2.
